Measured values: PMC7542444

biological target: His6-STLV-1 IN (6xHis-tagged STLV-1 MarB43 IN), wild type; assay: pull-down; conditions: parent: est. 100; read off a plot

First: LEDGF/ΔIBD-B56γ chimera (LEDGF residues 1-324 and B56γ residues 11-380), wild type (from UniProt O75475;Q13362) E78A; T81A; H82A
Second: LEDGF/ΔIBD-B56γ chimera (LEDGF residues 1-324 and B56γ residues 11-380), wild type (from UniProt O75475;Q13362) R84A
The percent of parent (% of wild type) of the first is higher: 150 for the first, 140 for the second.

Work on “LEDGF/ΔIBD-B56γ chimera (LEDGF residues 1-324 and B56γ residues 11-380), wild type (from UniProt O75475;Q13362) R143A” yielded a percent of parent (% of wild type) of 46.

biological target: LEDGF/ΔIBD-B56γ chimera (LEDGF residues 1-324 and B56γ residues 11-380), wild type, O75475;Q13362; assay: pull-down; conditions: parent: est. 100; read off a plot

Compared with “His6-STLV-1 IN (6xHis-tagged STLV-1 MarB43 IN), wild type E218A”, “His6-STLV-1 IN (6xHis-tagged STLV-1 MarB43 IN), wild type H209A” is higher in percent of parent (% of wild type): 5 for the first, 23 for the second.

Going from “His6-STLV-1 IN (6xHis-tagged STLV-1 MarB43 IN), wild type H209A; P211A” to “His6-STLV-1 IN (6xHis-tagged STLV-1 MarB43 IN), wild type I216A”, the percent of parent (% of wild type) falls from 21 to 1.

Going from “His6-STLV-1 IN (6xHis-tagged STLV-1 MarB43 IN), wild type P214A” to “His6-STLV-1 IN (6xHis-tagged STLV-1 MarB43 IN), wild type P215A; P217A”, the percent of parent (% of wild type) falls from 57 to 15.
